Results: article PMC9024677

Tests used:
[1] = target: bovine cardiac α-actin (bovine) (UniProt Q3ZC07); assay: other fluorescence titration; critical concentration of polymerization (monomer to filament): 0.1 to 10 μM c-actin with 5% pyrene-actin, 2 mM MgCl2 and 0.05 M KCl overnight; steady-state fluorescence against actin concentration
[2] = target: bovine cardiac α-actin (bovine) (UniProt Q3ZC07); assay: pyrene-actin polymerization assay; 5 μM actin with pyrene-labelled skeletal muscle actin (20:1) in G-buffer; polymerization started with 2 mM MgCl2 (and 0.05 M KCl); fluorescence increase followed over time
[3] = target: deoxyribonuclease I (DNase I) (bovine) (UniProt P00639)
[4] = target: human cardiac α-actin mutant p.A295S (human); assay: other fluorescence titration; critical concentration of polymerization (monomer to filament): 0.1 to 10 μM c-actin with 5% pyrene-actin, 2 mM MgCl2 and 0.05 M KCl overnight; steady-state fluorescence against actin concentration
[5] = target: human cardiac α-actin mutant p.A295S (human); assay: pyrene-actin polymerization assay; 5 μM actin with pyrene-labelled skeletal muscle actin (20:1) in G-buffer; polymerization started with 2 mM MgCl2 (and 0.05 M KCl); fluorescence increase followed over time
[6] = target: human cardiac α-actin mutant p.E361G (human); assay: other fluorescence titration; critical concentration of polymerization (monomer to filament): 0.1 to 10 μM c-actin with 5% pyrene-actin, 2 mM MgCl2 and 0.05 M KCl overnight; steady-state fluorescence against actin concentration
[7] = target: human cardiac α-actin mutant p.E361G (human); assay: pyrene-actin polymerization assay; 5 μM actin with pyrene-labelled skeletal muscle actin (20:1) in G-buffer; polymerization started with 2 mM MgCl2 (and 0.05 M KCl); fluorescence increase followed over time
[8] = target: human cardiac α-actin mutant p.R312H (human); assay: other fluorescence titration; critical concentration of polymerization (monomer to filament): 0.1 to 10 μM c-actin with 5% pyrene-actin, 2 mM MgCl2 and 0.05 M KCl overnight; steady-state fluorescence against actin concentration
[9] = target: human cardiac α-actin mutant p.R312H (human); assay: pyrene-actin polymerization assay; 5 μM actin with pyrene-labelled skeletal muscle actin (20:1) in G-buffer; polymerization started with 2 mM MgCl2 (and 0.05 M KCl); fluorescence increase followed over time
[10] = target: human cardiac α-actin variant p.R312K (human); assay: other fluorescence titration; critical concentration of polymerization (monomer to filament): 0.1 to 10 μM c-actin with 5% pyrene-actin, 2 mM MgCl2 and 0.05 M KCl overnight; steady-state fluorescence against actin concentration
[11] = target: human cardiac α-actin variant p.R312K (human); assay: pyrene-actin polymerization assay; 5 μM actin with pyrene-labelled skeletal muscle actin (20:1) in G-buffer; polymerization started with 2 mM MgCl2 (and 0.05 M KCl); fluorescence increase followed over time
[12] = target: human wild type cardiac α-actin (recombinant) (human) (UniProt P68032); assay: other fluorescence titration; critical concentration of polymerization (monomer to filament): 0.1 to 10 μM c-actin with 5% pyrene-actin, 2 mM MgCl2 and 0.05 M KCl overnight; steady-state fluorescence against actin concentration
[13] = target: human wild type cardiac α-actin (recombinant) (human) (UniProt P68032); assay: pyrene-actin polymerization assay; 5 μM actin with pyrene-labelled skeletal muscle actin (20:1) in G-buffer; polymerization started with 2 mM MgCl2 (and 0.05 M KCl); fluorescence increase followed over time
[14] = target: human cardiac α-actin mutant p.A295S (human)
[15] = target: human cardiac α-actin mutant p.R312H (human)
[16] = target: human cardiac α-actin mutant p.E361G (human)
[17] = target: human wild type cardiac α-actin (recombinant) (human) (UniProt P68032)
[18] = target: bovine cardiac α-actin (bovine) (UniProt Q3ZC07)

Chain of deoxyribonuclease I (DNase I) (bovine) (P00639 23-282): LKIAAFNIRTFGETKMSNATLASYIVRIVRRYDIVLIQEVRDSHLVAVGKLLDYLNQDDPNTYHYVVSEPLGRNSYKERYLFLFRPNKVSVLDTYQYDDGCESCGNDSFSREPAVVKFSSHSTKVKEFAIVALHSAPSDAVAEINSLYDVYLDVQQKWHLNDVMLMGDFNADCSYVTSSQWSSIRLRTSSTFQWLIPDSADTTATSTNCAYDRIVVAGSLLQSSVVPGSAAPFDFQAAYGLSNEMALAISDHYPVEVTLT

bovine cardiac α-actin (from UniProt Q3ZC07 1-377) (natural protein)
critical concentration of polymerization (Cc) [1]: 0.21 µM
half time of polymerization (t 1/2) [2]: 2.7 min

human cardiac α-actin mutant p.A295S (natural protein)
inhibition of DNase I activity (hyperchromicity assay), 3.2 μM DNase I pre-incubated with zero to 6.4 μM G-actin; inhibitory capacity against wt c-α-actin [3]: 33%
critical concentration of polymerization (Cc) [4]: 0.4 µM
half time of polymerization (t 1/2) [5]: 8.5 min

human cardiac α-actin mutant p.E361G (natural protein)
critical concentration of polymerization (Cc) [6]: 0.2 µM
half time of polymerization (t 1/2) [7]: 1.6 min

human cardiac α-actin mutant p.R312H (natural protein)
critical concentration of polymerization (Cc) [8]: 0.7 µM
half time of polymerization (t 1/2) [9]: 10.8 min

human cardiac α-actin variant p.R312K (natural protein)
critical concentration of polymerization (Cc) [10]: 0.21 µM
half time of polymerization (t 1/2) [11]: 3.08 min

human wild type cardiac α-actin (recombinant) (from UniProt P68032 1-377) (natural protein)
inhibition of DNase I activity (hyperchromicity assay), 3.2 μM DNase I pre-incubated with zero to 6.4 μM G-actin; concentration for complete inhibition against skeletal muscle actin ([3]; scale: fold higher concentration than skeletal muscle actin): 3
critical concentration of polymerization (Cc) [12]: 0.2 µM
half time of polymerization (t 1/2) [13]: 2.5 min

rabbit skeletal muscle myosin subfragment-1 (domain or fragment)
apparent KM of the myosin-S1 ATPase stimulation by F-c-actin (double reciprocal plot), pCa 4.3, without cTm/cTn [14]: 0.966 µM
apparent KM of the myosin-S1 ATPase stimulation by F-c-actin decorated with cTm/cTn (6:1:1), pCa 4.3 [14]: 3.31 µM
apparent KM of the myosin-S1 ATPase stimulation by F-c-actin (double reciprocal plot), pCa 4.3, without cTm/cTn [15]: 0.096 µM
apparent KM of the myosin-S1 ATPase stimulation by F-c-actin decorated with cTm/cTn (6:1:1), pCa 4.3 [15]: 0.0243 µM
apparent KM of the myosin-S1 ATPase stimulation by F-c-actin (double reciprocal plot), pCa 4.3, without cTm/cTn [16]: 0.075 µM
apparent KM of the myosin-S1 ATPase stimulation by F-c-actin decorated with cTm/cTn (6:1:1), pCa 4.3 [16]: 0.173 µM
apparent KM of the myosin-S1 ATPase stimulation by F-c-actin (double reciprocal plot), pCa 4.3, without cTm/cTn [17]: 0.165 µM
apparent KM of the myosin-S1 ATPase stimulation by F-c-actin decorated with cTm/cTn (6:1:1), pCa 4.3 [17]: 0.217 µM
apparent KM of the myosin-S1 ATPase stimulation by F-c-actin (double reciprocal plot), pCa 4.3, without cTm/cTn [18]: 0.081 µM
